For one assay, the target named is β-arrestin2 R166A (UniProt P29067 1-410, R166A). Nature of the assay: ITC.
The target in the next assay is β-arrestin2 R394A (UniProt P29067 1-410, R394A). Description: ITC.

Square brackets hold non-standard residues; d marks the D form. Ends that are not written are not given here. pT = C[C@@H](OP(=O)(O)O)[C@H](N)C(=O)O; pS = N[C@@H](COP(=O)(O)O)C(=O)O

Chain of β-arrestin2 R166A (P29067 whole entry R166A): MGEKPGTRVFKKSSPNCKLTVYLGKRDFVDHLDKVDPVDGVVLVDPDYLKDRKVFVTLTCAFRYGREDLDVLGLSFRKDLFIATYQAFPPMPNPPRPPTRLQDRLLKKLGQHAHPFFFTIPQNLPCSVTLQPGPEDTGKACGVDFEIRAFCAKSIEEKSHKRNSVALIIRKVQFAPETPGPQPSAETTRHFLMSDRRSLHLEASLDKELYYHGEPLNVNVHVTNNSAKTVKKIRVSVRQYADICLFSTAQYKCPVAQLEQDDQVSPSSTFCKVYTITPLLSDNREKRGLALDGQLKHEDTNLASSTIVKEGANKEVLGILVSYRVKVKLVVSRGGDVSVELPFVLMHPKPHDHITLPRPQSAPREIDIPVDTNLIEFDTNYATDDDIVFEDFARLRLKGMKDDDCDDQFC
Chain of β-arrestin2 R394A (P29067 whole entry R394A): as the sequence (P29067 whole entry R166A) above, with A166R, R394A counted along it

For ASRV[pS]E[pT]EY[pS]ALEQ [C7pp2, phosphopeptide derived from the carboxyl terminus of CXCR7 (residues 346-359)], the Kd (in general, the concentration at which binding is half-saturated) with β-arrestin2 R166A was determined as 16.4 µM; with β-arrestin2 R394A, 1100 nM.

Values taken from article doi:10.1101/2025.01.05.631353 (bioRxiv, 2025).
